Reference: the DeepSol protein solubility set

Assay: soluble on expression in E. coli; label from the status in PepcDB or PDB records

Soluble on expression in E. coli, not soluble:
MGSDKIHHHHHHMLSRTASELFWMARYLERAESYARVLDVTWKLSMIPRHSQQSRDLALPLNLSMTHELFQARHARFTMSNLLNFFALDGNNPCSIYSCVEMAWNNAHAVRGSLSAEVWESINATRIELRTLRQQGLGELGSDGFFEWVKERVHLFRGAVIGTLLRNDALSFIGIGTLIERAFATTQLLLIKDQQLTNDPDPVREYYRLDTLLNAVSAREAYNSLYRQPVSRETVMELLILRNDIPRSLRASIADLVGELEKIANDRSYQPLRLAHQLNVDLRFSTRDDLAQADLQTTLNGLLARINALSDSIRQTYLEAL, MGSDKIHHHHHHMLSVPPDKSITHRALILSALAETESTLYNLLRCLDTERTHDILEKLGTRFEGDWEKMKVFPKPFAEPIEPLFCGNSGTTTRLMSGVLASYEMFTVLYGDPSLSRRPMRRVIEPLEMMGARFMARQNNYLPMAIKGNHLSGISYKTPVASAQVKSAVLLAGLRASGRTIVIEPAKSRDHTERMLKNLGVPVEVEGTRVVLEPATFRGFTMKVPGDISSAAFFVVLGAIHPNARITVTDVGLNPTRTGLLEVMKLMGANLEWEITEENLEPIGTVRVETSPNLKGVVVPEHLVPLMIDELPLVALLGVFAEGETVVRNAEELRKKESDRIRVLVENFKRLGVEIEEFKDGFKIVGKQSIKGGSVDPEGDHRMAMLFSIAGLVSEEGVDVKDHECVAVSFPNFYELLERVVIS, MGSDKIHHHHHHMLTDHRCTKYTDCSSCSFYQRDIFKYRLYPKGYVIPQTRCMQNMVFFLVKGEIWLNSEEHPDTTFRGGQFVLQPIGSKVECKVLDYTECIIYLFERPQNICDNRFNKGISIVENERQQPIVMTMVPPIQLFIEGMKLYLNDDLRCSGLMQAKRSEMVYLLNCYYPIKELAAFYAPIYRYSHSFQYFVMQNYQKAKDVETFAQLGGYSVPTFRRIFKDTFGEPAYQWMLKRKCQDIHNDLIMTELSISEICYKYGFESLSNFSHFCRANFGQSPRSVRSLKDENT, MGSDKIHHHHHHMLTGQRRRESRSRQGSGFPTISYPRIRDGANRPRTRMSPLPEAVPFFSQWETPDMTLAVLADGAEVALRRDLLWQGSGAESLDEYAVWAANICGMACLKMILATRGEIVPTIELARRCTRYGGYVVNEGSIKGLIYAPFVSFVQAEFSLEAQVMTNVATSDIPAILRQSRFFIASVSSSIRWPEGEPPSKGGHLVLVTAASDDGFRFHNPSGHTSVTQANAVLAPADFDRFFANRGIAITI, MGSDKIHHHHHHMLTRLEVNCFKNLLGFSVNFGPFNCVAGLNGVGKSNIFDSIKFLSLLADKSIVEAALEVRESDSTDPLDIFWTNGEFRSERLSLAVEMIVPVDVIDDFGRRAKATSTFLRYEVELARDDGERESGSLGLHLVKETLIHINKGEAVDRLRFPMSAAKFRENIVINKRKGAGFISTHQDRDGIVEIHLHQDGGSSGQPQKFPARNAPKTVVSNTNSGVWPTILAARREMQSWRFLSLEPSAMRRSNKIHEEGAVSSGGGRLGAALYKLHRKDPSVYTRVASRLSEIVPTSDIRVDVDQVRQLLTVEVKERSGAFLPARALSDGTLRFLALSIIAEDPDFNGVLCFEEPENGIHPARVGAMLALLKELSVDPHDEVSESNSMRQIVVATHSPVLVSLEEPNDLIFADVVKVKGPNGMPATTIRCKCLRESWRFSDEEGNGIDRASIISYLELPPDRQISLNLKTTGVAINLEATV, MGSDKIHHHHHHMLTTLAIFNYRSLREIVLPLGQLNLITGANGSGKSNLYKALRLLAQTAQGGVVNALAQEGGLDSSFWAGPENFTKSMLAGDTAIEATVRQAPKRLKLGFAGEDFSYLIELGLPEPDATTLFGLDPQIKREAIWNGPKYRPSTVLVERRGPMVKSRSADGKGWIILGAHLQTGDSLFTELADPERCPEVLKLRDSIRAWRFYDHFRTDAEAPARRPQLGTATPVLHHDGRDLASAIQTIFEIGDKSAFDHAVSDAFPGAKVRIEPQAGGILVLAFHQHGLLRPLNASELSDGTLRYLLLIAALLTPRPPELMVLNEPETSLHPDLLPALARLIAKVSEECQLWVVSHANRLINALSQFEHCNTLALDKTLGQTQIQGQDLLNTPSWLWQNR, MGSDKIHHHHHHMLVLNNLQKKFTNSKMVLNNVNAKFRSGSINCIVGVNGAGKTTLLNIISSILMPTKGDVYLNSESIFENSTLKKEIFYTPVNPFFYENLSAKDNLYLICSLYNRKIDQITIEKTIKDVGLNIEDLNIPVYNFSSGMKQKLNFASMLLVDSNVLLLDEPFNALDHVAQKNFTRILKGLVSKEKIIIFTSHLPNTILELSENIYLLKDGCFTDKRKAQSFNQTTLETWLLESQKEVIPYEEK, MGSDKIHHHHHHMMAEALQRENPSGFEGSVAGLPLTDVIQLKGQNRFSGCIAVEYRERQGMIFFRDGDIIHAEQGKLMGEMALYEIIRWPGGRFNIQPKVTTTSRTIQQSISFLLLEAHRLMDEEQAAVRADEGTRREEAAAPAAVQNRMSAVAERIVRIAGVSYAVLMKKDGTPLEDDSFEAEVLSAKGMSLAGIGSRLGELFGLDEVKSAAVHARGKQILLFEAKNHYVSIAVRGDSSLAHVENEIRSTFAGRK, MGSDKIHHHHHHMMELRYNPLTDEWVIVSAATQKRPVQPSKTECPICVGGLELPEEYDLVTFENRYPSLKKDPPPVNWKEKGPFRKEESRGVCEVVVYTSDHNTALPGMPLKQIEKLVEMWVDRTRDLSQHDFVKYIFIFENRGKEVGASLPHPHGQIYAFPFLPKRIEVKIGAMRKWYEEKRKCPICEVLESEGEERKVYETEHFLALVPFYARFPYEVHIYPKRHVSTLLEFSKEEKKEFAKVLKVVTAKYDKLFDQEFPYMMMFFQAPFNEEDVSHFFHFHVEFNPPKRDRDKLKWMASVETGTWAFINPVVPEEAARQLRETEVEI, MGSDKIHHHHHHMMENFPKPVVVVSKCLGFDSCRYNGDIIDAPFVDKLRSHVTFVPVCPEVEIGLGVPRKPIRIVSDKGITTLYQPATGKDFTGTMRSFVDDFLGSLTEVDGFLLKNRSPSCGVGDVKIHAGFDEGARMFRGSGFLGGAVLERFAGLPVEDEGRIRNFTIREHFLTRLFLFARFREVKKSGSMRGLVDFHSLQKLLLMGYNQAQMRLLGKIVANHEKADWNTMITRYEEQLKRALANPPRFTAMINVLLHAFGGFSNVLAKEEKAFFLDLIEEYRDERIPLSALLQVLRGWSIRFRNDYLLGQTFLQPYPGQLSKITDSGKGREP, MGSDKIHHHHHHMMKALILAGGSGERFWPLSTPETPKQFLKLFGNKSLMRWTFERVLEEMDPKDVIVVTHKDYVERTKKELPELPDENIIAEPMKKNTAPACFIGTKLADDDEPVLVLPADHRIPDTKKFWKTVKKALDALEKYDGLFTFGIVPTRPETGYGYIEIGEELEEGVHKVAQFREKPDLETAKKFVESGRFLWNSGMFLWKAREFIEEVKVCEPSIYENLKDVDPRNFEELKKAYEKVPSISVDYAVMEKSKKVRVVKADFEWSDVGNWSSVREIEGYTEESDEVILVDSDRVFVKTHNKPIAVVGLSDVIVIDTPNGILICKEEYAQKVREVVKKLFRTS, MGSDKIHHHHHHMMKSRDKKDLILESIIQTYLLDNAPIGSNELNSNLCIPASTIRVYLKRLSDEGLITQLHISSGRIPTILTMQNYWQNFWEKEQDKNIHIKNESFLKELSKEFEIYCLVYGGRSLVLKEVLDLNTKFIVLDFEDEELVLKYEKEAWNFLQSLIGLDLSSIEKIALRVHFIDLVEKIASLRQNLICYRSNEERAYQIYQNDEFVKLLDCQIHRHFKESLEFEPLFKEGFMGLKVDAQFLGEDVNIILAGSVYTDYKKILQYIKEAA, MGSDKIHHHHHHMMKTVNELIKDINSLTSHLHEKDFLLTWEQTPDELKQVLDVAAALKALRAENISTKVFNSGLGISVFRDNSTRTRFSYASALNLLGLAQQDLDEGKSQIAHGETVRETANMISFCADAIGIRDDMYLGAGNAYMREVGAALDDGYKQGVLPQRPALVNLQCDIDHPTQSMADLAWLREHFGSLENLKGKKIAMTWAYSPSYGKPLSVPQGIIGLMTRFGMDVTLAHPEGYDLIPDVVEVAKNNAKASGGSFRQVTSMEEAFKDADIVYPKSWAPYKVMEERTELLRANDHEGLKALEKQCLAQNAQHKDWHCTEEMMELTRDGEALYMHCLPADISGVSCKEGEVTEGVFEKYRIATYKEASWKPYIIAAMILSRKYAKPGALLEQLLKEAQERVK, MGSDKIHHHHHHMMNSFYNGISGVKSNSFGIDITANNIANVNTTGFKYSDAQFKDIFYTTITTQSTNPAQGGYGSGAASSQVVFEQGSPVASDGEFDVALQGKGFFGVLGADGNAYYTRNGSFRRDANGYLVDSYGNFVLGTMNPAFTGINYSDRVAGLMGDYLNTGTPVNNGFTVNSNNSFSIGTTASQGAIKVPVNMYLPPQVTQNVKWSGSLNTNTTTEVVKVDLDPSKFNITKTEDGKYVVSGSVSKEDVFSAKAGDRIILNFTDDNGVKTSFEATLDENLNFKSNELDLKGLDENSIKLDTAQISTEQQKANKDILESPIYNADGSKSTLRVTLERVLPQEGDNIQYKAIAQIYDSNGNAVGNPTEGNMVFDKNGALLQNNITSIANPNGGTINIDLGSPYDANKPGSGYSGIYIKQGVEKNVVTQQDGVAEGFFEQYNISDDGSIVAQFSNGKNAIVGKLALYNFINEQGLVAMGDNIFAATANSGDASFIMKDGQVVNTAKFKGGFLEQSNVDLSAELSNLIVTQKAFDASSKSITTSDQMIQKAINMKR, MGSDKIHHHHHHMMSLSSAETIRASLHNALGKIESFKSCALLDYPDHPNIGDHLIWLGGVIYLTNVMKTQIKYTCSLHNFSPKTLEDNIGKSPIVFHGGGNLGDLWTEQQKFREGIISKYRDRPIVILPQSLYFRHEVNLIKTANIFNSHPNLTIFLRDERSYKIAREAFDKCQVFKAPDMAFQMTDLQDIFHIQNNKSSILYLSRKDREINQKQSENIFDLPNLVVEDWIAYEWKFGHPTKKLAKYVSTLYREVWQRGLATPIEWNSRQKWQNSYPYEVEFNHVYQPSIHQLSWSLMHSGVYQLKQHRLVITNRLHGHIICVLFNIPHVFLPNSYYKNEAFYEEWTKEIPDCRFIKDTSEVKIAVEELLASSTGKAIN, MGSDKIHHHHHHMMSVQTTKLDAVPLGDRAPILEMRGISQIFPGVKALDGVNIALYPGEVTALIGENGAGKSTLVKILTGIYRPNEGEIVIDGSPVTFADAQAAIDAGVTAIHQETVLFDELSVAENIFLGHAPKTRFGFIDWNGINTKARALMDRLESKIDPTIRLKDLSIAQRHLVAIARALSVEARIVIMDEPTAALSRKEIDDLFRIVEGLKRDGKAILFISHKFDEVYEIAENYAVFRDGKMVGAGRLQSTPQDEIVRLMVGRDVHDAFPKIDVSIGAAVLSVSRYCHDTEFRDISFDLRKGEILGFYGLIGAGRSELCQSLFGITHPASGTVTLEGRALDIRSPADAIAAGIVYVPEERGRHGLALQMPIYQNMSLPSLARVSARGFLKVVNELALARHYAERLDLRAAALSVPVGTLSGGNQQKVVIGKWLATKPKVIILDEPTKGIDIGSKAAVHGFISELAAEGLSIIMISSELPEILGMSDRVMVMREGLQAGIFEREALTPEVLVRAATGNA
